Numbered stars: 1 amine (or outer) side, 2 acyl side, 3 side chain; on linkers, the order of the positions; unused ones are H or OH. Bridge positions count the residues as written; N and C are the ends. Square brackets hold non-standard residues; d marks the D form. Ends that are not written are not given here. * marks the point of attachment. X17 = 2‑((1S,2S)-1-(Amino)-2-methylbutyl)‑1,3‑oxazole‑4‑carboxylic acid, CC[C@H](C)[C@H](N[*:1])c1nc(C(=O)[*:2])co1; (3-Chloro-Ph)G = 3-chlorophenylglycine, O=C([C@@H](N[*:1])c1cccc(Cl)c1)[*:2]; Oic = O=C(O)[C@@H]1C[C@@H]2CCCC[C@@H]2N1; Phe(3-Br) = N[C@@H](Cc1cccc(Br)c1)C(=O)O; Cyclobutanecarbonyl = O=C(C1CCC1)*; tBuAla = CC(C)(C)C[C@H](N)C(=O)O; Pen = CC(C)(S)[C@H](N)C(=O)O; NMeC = CN[C@@H](CS)C(=O)O; NPhGly = O=C(O)CNc1ccccc1; PEG3 = NCCOCCOCCOCCC(=O)O; Pip = O=C(O)[C@@H]1CCCCN1; NMeA = CN[C@@H](C)C(=O)O; Orn = NCCC[C@H](N)C(=O)O; Sar = CNCC(=O)O

B1: ((N-Me)A)-IC+SRSLPPIC+IPD-NH2 (peptide)
peptide: [NMeA]ICSRSLPPICIPD-NH2
modifications: disulfide 3-11; N-terminus assumed
SMILES: CC[C@H](C)[C@H](NC(=O)[C@H](C)NC)C(=O)N[C@H]1CSSC[C@@H](C(=O)N[C@H](C(=O)N2CCC[C@H]2C(=O)N[C@@H](CC(=O)O)C(N)=O)[C@@H](C)CC)NC(=O)[C@H]([C@@H](C)CC)NC(=O)[C@@H]2CCCN2C(=O)[C@@H]2CCCN2C(=O)[C@H](CC(C)C)NC(=O)[C@H](CO)NC(=O)[C@H](CCCNC(=N)N)NC(=O)[C@H](CO)NC1=O
B2: (Orn)-IC+SRS-((tBu)A)-PPI-((N-Me)C)+(2-[(1S,2S)-1-(Amino)-2-methylbutyl]-1,3-oxazole-4-carboxylic acid)-D-NH2 (peptide)
peptide: [Orn]ICSRS[tBuAla]PPI[NMeC][X17]D-NH2
modifications: disulfide 3-11; N-terminus assumed
SMILES: CC[C@H](C)[C@H](NC(=O)[C@@H](N)CCCN)C(=O)N[C@H]1CSSC[C@@H](C(=O)N[C@H](c2nc(C(=O)N[C@@H](CC(=O)O)C(N)=O)co2)[C@@H](C)CC)N(C)C(=O)[C@H]([C@@H](C)CC)NC(=O)[C@@H]2CCCN2C(=O)[C@@H]2CCCN2C(=O)[C@H](CC(C)(C)C)NC(=O)[C@H](CO)NC(=O)[C@H](CCCNC(=N)N)NC(=O)[C@H](CO)NC1=O
B3: (Cyclobutanecarboxylic)-IC+SRS-((tBu)A)-PPI-((N-Me)C)+I-NH2 (peptide)
peptide: Cyclobutanecarbonyl-ICSRS[tBuAla]PPI[NMeC]I-NH2
modifications: disulfide 2-10
SMILES: CC[C@H](C)[C@H](NC(=O)[C@@H]1CSSC[C@H](NC(=O)[C@@H](NC(=O)C2CCC2)[C@@H](C)CC)C(=O)N[C@@H](CO)C(=O)N[C@@H](CCCNC(=N)N)C(=O)N[C@@H](CO)C(=O)N[C@@H](CC(C)(C)C)C(=O)N2CCC[C@H]2C(=O)N2CCC[C@H]2C(=O)N[C@@H]([C@@H](C)CC)C(=O)N1C)C(N)=O
B4: IC+SRS-((tBu)A)-PPI-(Pen)+IPP-NH2 (peptide)
peptide: ICSRS[tBuAla]PPI[Pen]IPP-NH2
modifications: disulfide 2-10; N-terminus assumed
SMILES: CC[C@H](C)[C@H](N)C(=O)N[C@H]1CSSC(C)(C)[C@@H](C(=O)N[C@H](C(=O)N2CCC[C@H]2C(=O)N2CCC[C@H]2C(N)=O)[C@@H](C)CC)NC(=O)[C@H]([C@@H](C)CC)NC(=O)[C@@H]2CCCN2C(=O)[C@@H]2CCCN2C(=O)[C@H](CC(C)(C)C)NC(=O)[C@H](CO)NC(=O)[C@H](CCCNC(=N)N)NC(=O)[C@H](CO)NC1=O
B5: ((N-Ph)G)-IC+SRS-((tBu)A)-PPI-((N-Me)C)+I-NH2 (peptide)
peptide: [NPhGly]ICSRS[tBuAla]PPI[NMeC]I-NH2
modifications: disulfide 3-11; N-terminus assumed
SMILES: CC[C@H](C)[C@H](NC(=O)[C@@H]1CSSC[C@H](NC(=O)[C@@H](NC(=O)CNc2ccccc2)[C@@H](C)CC)C(=O)N[C@@H](CO)C(=O)N[C@@H](CCCNC(=N)N)C(=O)N[C@@H](CO)C(=O)N[C@@H](CC(C)(C)C)C(=O)N2CCC[C@H]2C(=O)N2CCC[C@H]2C(=O)N[C@@H]([C@@H](C)CC)C(=O)N1C)C(N)=O
B6: AIC+SRSLPP-((3-Chloro-Ph)G)-C+IPD-NH2 (peptide)
peptide: AICSRSLPP[(3-Chloro-Ph)G]CIPD-NH2
modifications: disulfide 3-11; N-terminus assumed
SMILES: CC[C@H](C)[C@H](NC(=O)[C@H](C)N)C(=O)N[C@H]1CSSC[C@@H](C(=O)N[C@H](C(=O)N2CCC[C@H]2C(=O)N[C@@H](CC(=O)O)C(N)=O)[C@@H](C)CC)NC(=O)[C@H](c2cccc(Cl)c2)NC(=O)[C@@H]2CCCN2C(=O)[C@@H]2CCCN2C(=O)[C@H](CC(C)C)NC(=O)[C@H](CO)NC(=O)[C@H](CCCNC(=N)N)NC(=O)[C@H](CO)NC1=O
B7: Example 401: GIC+SRSL-(Pip)-PIC+ID-OH (peptide)
peptide: GICSRSL[Pip]PICID-OH
modifications: disulfide 3-11; N-terminus assumed
SMILES: CC[C@H](C)[C@H](NC(=O)CN)C(=O)N[C@H]1CSSC[C@@H](C(=O)N[C@H](C(=O)N[C@@H](CC(=O)O)C(=O)O)[C@@H](C)CC)NC(=O)[C@H]([C@@H](C)CC)NC(=O)[C@@H]2CCCN2C(=O)[C@@H]2CCCCN2C(=O)[C@H](CC(C)C)NC(=O)[C@H](CO)NC(=O)[C@H](CCCNC(=N)N)NC(=O)[C@H](CO)NC1=O
B8: Example 330: ((3-Bromo)F)-IC+SRS-((tBu)A)-PPI-(Pen)+IPD-NH2 (peptide)
peptide: [Phe(3-Br)]ICSRS[tBuAla]PPI[Pen]IPD-NH2
modifications: disulfide 3-11; N-terminus assumed
SMILES: CC[C@H](C)[C@H](NC(=O)[C@@H](N)Cc1cccc(Br)c1)C(=O)N[C@H]1CSSC(C)(C)[C@@H](C(=O)N[C@H](C(=O)N2CCC[C@H]2C(=O)N[C@@H](CC(=O)O)C(N)=O)[C@@H](C)CC)NC(=O)[C@H]([C@@H](C)CC)NC(=O)[C@@H]2CCCN2C(=O)[C@@H]2CCCN2C(=O)[C@H](CC(C)(C)C)NC(=O)[C@H](CO)NC(=O)[C@H](CCCNC(=N)N)NC(=O)[C@H](CO)NC1=O
B9: Example 394: ((N-Me)G)-IC+SRSLPPIC+IPN-OH (peptide)
peptide: [Sar]ICSRSLPPICIPN-OH
modifications: disulfide 3-11; N-terminus assumed
SMILES: CC[C@H](C)[C@H](NC(=O)CNC)C(=O)N[C@H]1CSSC[C@@H](C(=O)N[C@H](C(=O)N2CCC[C@H]2C(=O)N[C@@H](CC(N)=O)C(=O)O)[C@@H](C)CC)NC(=O)[C@H]([C@@H](C)CC)NC(=O)[C@@H]2CCCN2C(=O)[C@@H]2CCCN2C(=O)[C@H](CC(C)C)NC(=O)[C@H](CO)NC(=O)[C@H](CCCNC(=N)N)NC(=O)[C@H](CO)NC1=O
B10: Example 432: AIC+SRSLP-(Oic)-I-(Pen)+IPD-OH (choline-salt) (peptide)
peptide: AICSRSLP[Oic]I[Pen]IPD-OH
modifications: disulfide 3-11; also: choline salt
B11: Example 431: AIC+SRSLP-(Oic)-I-(Pen)+IPD-OH (sodium salt) (peptide)
peptide: AICSRSLP[Oic]I[Pen]IPD-OH
modifications: disulfide 3-11; also: sodium salt
B12: Example 7: ((N-Me)G)-IC+SRSLP-(Oic)-I-(Pen)+IP-(PEG2(13 atoms))-NH2 (peptide)
peptide: [Sar]ICSRSLP[Oic]I[Pen]IP-{PEG3-NH2}
modifications: disulfide 3-11
B13: Example 468: ((N-Me)G)-IC+SRSLP-(Oic)-I-(Pen)+IP-(PEG2(13 atoms))-OH (peptide)
peptide: [Sar]ICSRSLP[Oic]I[Pen]IP[PEG3]-OH
modifications: disulfide 3-11; N-terminus assumed
SMILES: CC[C@H](C)[C@H](NC(=O)CNC)C(=O)N[C@H]1CSSC(C)(C)[C@@H](C(=O)N[C@H](C(=O)N2CCC[C@H]2C(=O)NCCOCCOCCOCCC(=O)O)[C@@H](C)CC)NC(=O)[C@H]([C@@H](C)CC)NC(=O)[C@@H]2C[C@@H]3CCCC[C@@H]3N2C(=O)[C@@H]2CCCN2C(=O)[C@H](CC(C)C)NC(=O)[C@H](CO)NC(=O)[C@H](CCCNC(=N)N)NC(=O)[C@H](CO)NC1=O
B14: Example 13: AIC+SRSLP-(Oic)-I-(Pen)+IPD-OH (peptide)
peptide: AICSRSLP[Oic]I[Pen]IPD-OH
modifications: disulfide 3-11; also: TFA salt
B15: Example 29: AIC+SRSLP-(Oic)-I-(Pen)+IPD-OH (HCl salt) (peptide)
peptide: AICSRSLP[Oic]I[Pen]IPD-OH
modifications: disulfide 3-11; also: HCl salt
B16: Example 5: AIC+SRSLP-(Oic)-I-(Pen)+IPD-OH (salt free form) (peptide)
peptide: AICSRSLP[Oic]I[Pen]IPD-OH
modifications: disulfide 3-11

The target of the first experiment is T1, Recombinant human MASP1 enzyme (fragment corresponding to amino acids 297-699, C-terminal His Tag) (human, UniProt P48740 297-699).
T1 sequence: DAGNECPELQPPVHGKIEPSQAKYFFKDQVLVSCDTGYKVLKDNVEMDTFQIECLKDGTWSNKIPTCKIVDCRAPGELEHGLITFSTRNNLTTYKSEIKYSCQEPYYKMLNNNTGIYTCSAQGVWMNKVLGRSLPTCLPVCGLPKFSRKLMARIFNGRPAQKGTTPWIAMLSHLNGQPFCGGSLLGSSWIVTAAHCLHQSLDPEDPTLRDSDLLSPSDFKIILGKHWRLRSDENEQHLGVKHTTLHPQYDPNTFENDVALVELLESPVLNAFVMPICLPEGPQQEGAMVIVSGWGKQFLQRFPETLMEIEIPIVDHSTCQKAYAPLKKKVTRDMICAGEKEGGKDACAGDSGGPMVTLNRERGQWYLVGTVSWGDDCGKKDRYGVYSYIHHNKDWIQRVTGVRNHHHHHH
As to the kind of experiment: cell-based or functional assay.
In the case of B1, the “human MASP1 IC50” value stood at 18 nM.

For the molecule B2, the “human MASP1 IC50” value turned out to be 18 nM.

With B3, the “human MASP1 IC50” value was 18 nM.

Consider B4, for which the “human MASP1 IC50” value is 19 nM.

Take B5: the “human MASP1 IC50” value came to 18 nM.

Take B6: the “human MASP1 IC50” value worked out at 19 nM.

The target in the next experiment is Recombinant human MASP2 enzyme (fragment corresponding to amino acids 297-686, C-terminal His Tag) (human, UniProt O00187 297-686). The experiment in a line: cell-based or functional assay.
Chain of Recombinant human MASP2 enzyme (fragment corresponding to amino acids 297-686, C-terminal His Tag) (O00187 other isoform, or with tags, fused parts or gaps limits assumed): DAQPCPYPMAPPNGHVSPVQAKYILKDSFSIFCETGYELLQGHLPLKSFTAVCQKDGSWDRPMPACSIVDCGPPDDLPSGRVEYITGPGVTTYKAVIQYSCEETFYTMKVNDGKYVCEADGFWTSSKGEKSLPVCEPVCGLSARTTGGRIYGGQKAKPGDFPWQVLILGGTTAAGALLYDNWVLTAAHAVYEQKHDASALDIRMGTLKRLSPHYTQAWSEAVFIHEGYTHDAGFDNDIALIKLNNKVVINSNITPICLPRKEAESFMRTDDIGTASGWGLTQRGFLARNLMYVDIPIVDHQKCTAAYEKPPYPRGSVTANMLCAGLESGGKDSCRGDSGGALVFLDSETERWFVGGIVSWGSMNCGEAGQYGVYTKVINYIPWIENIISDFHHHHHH
Regarding B1, the “human MASP2 IC50” value turned out to be 500 nM.

Consider B2, for which the “human MASP2 IC50” value was determined as 910 nM.

Regarding B3, the “human MASP2 IC50” value was 19 nM.

On to B4, for which the “human MASP2 IC50” value is 500 nM.

For the molecule B5, the “human MASP2 IC50” value was 42 nM.

For the molecule B6, the “human MASP2 IC50” value was 1400 nM.

The target of a further experiment is T2, recombinant human MASP1 active protease (amino acids 297-699, C-terminal His Tag) (human, UniProt P48740 297-699).
T2 sequence: T1 sequence
The experiment in a line: cell-based or functional assay.
For the molecule B7, the “human MASP1 IC50” value stood at 56 nM.

In the case of B8, the “human MASP1 IC50” value is 24 nM.

With B9, the “human MASP1 IC50” value amounted to 52 nM.

B10: the “human MASP1 IC50” value was 2.7 nM.

For B11, the “human MASP1 IC50” value was 2 nM.

A further experiment addresses T3, recombinant rat MASP1 active protease (amino acids 302-704, C-terminal His Tag) (rat, UniProt Q8CHN8 302-704).
T3 sequence: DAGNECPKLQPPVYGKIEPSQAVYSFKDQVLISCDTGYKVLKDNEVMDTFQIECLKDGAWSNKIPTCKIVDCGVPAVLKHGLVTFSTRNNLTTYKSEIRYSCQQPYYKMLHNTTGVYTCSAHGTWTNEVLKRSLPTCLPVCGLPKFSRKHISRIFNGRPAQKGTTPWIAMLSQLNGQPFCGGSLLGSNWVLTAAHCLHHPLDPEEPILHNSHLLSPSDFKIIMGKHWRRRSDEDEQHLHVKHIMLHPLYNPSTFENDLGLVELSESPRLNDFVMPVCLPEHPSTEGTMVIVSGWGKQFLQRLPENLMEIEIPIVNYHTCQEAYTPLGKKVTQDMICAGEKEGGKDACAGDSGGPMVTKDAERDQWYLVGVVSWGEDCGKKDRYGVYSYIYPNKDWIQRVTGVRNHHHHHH
The experiment in a line: cell-based or functional assay.
On to B12, for which the “rat MASP1 IC50” value was found to be 30 nM.

For a further experiment, the target named is recombinant rat MASP2 active protease (amino acids 296-685, C-terminal His Tag) (rat, UniProt Q9JJS8 296-685). As to the kind of experiment: cell-based or functional assay.
Chain of recombinant rat MASP2 active protease (amino acids 296-685, C-terminal His Tag) (Q9JJS8 other isoform, or with tags, fused parts or gaps limits assumed): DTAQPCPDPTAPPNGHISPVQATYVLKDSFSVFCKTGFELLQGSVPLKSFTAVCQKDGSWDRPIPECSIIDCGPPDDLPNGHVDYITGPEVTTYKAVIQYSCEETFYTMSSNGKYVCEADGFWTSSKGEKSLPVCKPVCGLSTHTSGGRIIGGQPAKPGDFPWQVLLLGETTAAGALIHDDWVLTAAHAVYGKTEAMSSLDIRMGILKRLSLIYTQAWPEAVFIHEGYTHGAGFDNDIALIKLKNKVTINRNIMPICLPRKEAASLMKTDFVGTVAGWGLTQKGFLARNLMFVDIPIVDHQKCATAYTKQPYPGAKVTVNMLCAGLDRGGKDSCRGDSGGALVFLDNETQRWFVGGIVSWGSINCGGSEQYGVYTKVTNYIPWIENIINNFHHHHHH
Regarding B12, the “rat MASP2 IC50” value was determined as 16 nM.

With B13, the “rat MASP2 IC50” value stood at 80 nM.

For B14, the “rat MASP2 IC50” value is 16.4 nM.

As to B15, the “rat MASP2 IC50” value was determined as 17.4 nM.

B16: the “rat MASP2 IC50” value turned out to be 49 nM.

For the origin of these results see patent US20210246166A1 (Bayer, published 2021).
